From patent publication US5616559, “Papillomavirus E2 trans-activation repressors” (Biogen, Inc., dated 1997) come the findings set out here.

B1: E2-85 (methionine, alanine and the C-terminal 83 amino acids of HPV16 E2) (other)
chain: MASNTTPIVHLKGDANTLKCLRYRFKKHCTLYTAVSSTWHWTGHNVKHKSAIVTLTYDSEWQRDQFLSQVKIPKTITVSTGFMSI
B2: BPV1 E2 repressor with a tryptophan to asparagine mutation at amino acid residue 360 (other)
chain: MAGAGRIYYSRFGDEAARFSTTGHYSVRDQDRVYAGVSSTSSDFRDRPDGVWVASEGPEGDPAGKEAEPAQPVSSLLGSPACGPIRAGLGWVRDGPRSHPYNFPAGSGGSILRSSSTPVQGTVPVDLASRQEEEEQSPDSTEEEPVTLPRRTTNDGFHLLKAGGSCFALISGTANQVKCYRFRVKKNHRHRYENCTTTNFTVADNGAERQGQAQILITFGSPSQRQDFLKHVPLPPGMNISGFTASLDF
B3: E2-123 (methionine, valine and the C-terminal 121 amino acids of HPV16 E2) (other)
chain: MVPDTGNPCHTTKLLHRDSVDSAPILTAFNSSHKGRINCNSNTTPIVHLKGDANTLKCLRYRFKKHCTLYTAVSSTWHWTGHNVKHKSAIVTLTYDSEWQRDQFLSQVKIPKTITVSTGFMSI
B4: BPV1 E2 mutant 333V, full-length form (other)
chain: METACERLHVAQETQMQLIEKSSDKLQDHILYWTAVRTENTLLYAARKKGVTVLGHCRVPHSVVCQERAKQAIEMQLSLQELSKTEFGDEPWSLLDTSWDRYMSEPKRCFKKGARVVEVEFDGNASNTNWYTVYSNLYMRTEDGWQLAKAGADGTGLYYCTMAGAGRIYYSRFGDEAARFSTTGHYSVRDQDRVYAGVSSTSSDFRDRPDGVWVASEGPEGDPAGKEAEPAQPVSSLLGSPACGPIRAGLGWVRDGPRSHPYNFPAGSGGSILRSSSTPVQGTVPVDLASRQEEEEQSPDSTEEEPVTLPRRTTNDGFHLLKAGGSCFALISVTANQVKCYRFRVKKNHRHRYENCTTTWFTVADNGAERQGQAQILITFGSPSQRQDFLKHVPLPPGMNISGFTASLDF
B5: BPV1 E2 mutant 333V in the E2 repressor format (C-terminal 249 amino acids) (other)
chain: MAGAGRIYYSRFGDEAARFSTTGHYSVRDQDRVYAGVSSTSSDFRDRPDGVWVASEGPEGDPAGKEAEPAQPVSSLLGSPACGPIRAGLGWVRDGPRSHPYNFPAGSGGSILRSSSTPVQGTVPVDLASRQEEEEQSPDSTEEEPVTLPRRTTNDGFHLLKAGGSCFALISVTANQVKCYRFRVKKNHRHRYENCTTTWFTVADNGAERQGQAQILITFGSPSQRQDFLKHVPLPPGMNISGFTASLDF
B6: BPV1 E2 mutant 337L in the E2 repressor format (C-terminal 249 amino acids) (other)
chain: MAGAGRIYYSRFGDEAARFSTTGHYSVRDQDRVYAGVSSTSSDFRDRPDGVWVASEGPEGDPAGKEAEPAQPVSSLLGSPACGPIRAGLGWVRDGPRSHPYNFPAGSGGSILRSSSTPVQGTVPVDLASRQEEEEQSPDSTEEEPVTLPRRTTNDGFHLLKAGGSCFALISGTANLVKCYRFRVKKNHRHRYENCTTTWFTVADNGAERQGQAQILITFGSPSQRQDFLKHVPLPPGMNISGFTASLDF
B7: BPV1 E2 mutant 340S in the E2 repressor format (C-terminal 249 amino acids) (other)
chain: MAGAGRIYYSRFGDEAARFSTTGHYSVRDQDRVYAGVSSTSSDFRDRPDGVWVASEGPEGDPAGKEAEPAQPVSSLLGSPACGPIRAGLGWVRDGPRSHPYNFPAGSGGSILRSSSTPVQGTVPVDLASRQEEEEQSPDSTEEEPVTLPRRTTNDGFHLLKAGGSCFALISGTANQVKSYRFRVKKNHRHRYENCTTTWFTVADNGAERQGQAQILITFGSPSQRQDFLKHVPLPPGMNISGFTASLDF
B8: BPV1 E2 mutant 344L in the E2 repressor format (C-terminal 249 amino acids) (other)
chain: MAGAGRIYYSRFGDEAARFSTTGHYSVRDQDRVYAGVSSTSSDFRDRPDGVWVASEGPEGDPAGKEAEPAQPVSSLLGSPACGPIRAGLGWVRDGPRSHPYNFPAGSGGSILRSSSTPVQGTVPVDLASRQEEEEQSPDSTEEEPVTLPRRTTNDGFHLLKAGGSCFALISGTANQVKCYRFLVKKNHRHRYENCTTTWFTVADNGAERQGQAQILITFGSPSQRQDFLKHVPLPPGMNISGFTASLDF
B9: BPV1 E2 mutant 340G in the E2 repressor format (C-terminal 249 amino acids) (other)
chain: MAGAGRIYYSRFGDEAARFSTTGHYSVRDQDRVYAGVSSTSSDFRDRPDGVWVASEGPEGDPAGKEAEPAQPVSSLLGSPACGPIRAGLGWVRDGPRSHPYNFPAGSGGSILRSSSTPVQGTVPVDLASRQEEEEQSPDSTEEEPVTLPRRTTNDGFHLLKAGGSCFALISGTANQVKGYRFRVKKNHRHRYENCTTTWFTVADNGAERQGQAQILITFGSPSQRQDFLKHVPLPPGMNISGFTASLDF
B10: BPV1 E2 mutant 340F in the E2 repressor format (C-terminal 249 amino acids) (other)
chain: MAGAGRIYYSRFGDEAARFSTTGHYSVRDQDRVYAGVSSTSSDFRDRPDGVWVASEGPEGDPAGKEAEPAQPVSSLLGSPACGPIRAGLGWVRDGPRSHPYNFPAGSGGSILRSSSTPVQGTVPVDLASRQEEEEQSPDSTEEEPVTLPRRTTNDGFHLLKAGGSCFALISGTANQVKFYRFRVKKNHRHRYENCTTTWFTVADNGAERQGQAQILITFGSPSQRQDFLKHVPLPPGMNISGFTASLDF
B11: BPV1 E2 mutant 399I in the E2 repressor format (C-terminal 249 amino acids) (other)
chain: MAGAGRIYYSRFGDEAARFSTTGHYSVRDQDRVYAGVSSTSSDFRDRPDGVWVASEGPEGDPAGKEAEPAQPVSSLLGSPACGPIRAGLGWVRDGPRSHPYNFPAGSGGSILRSSSTPVQGTVPVDLASRQEEEEQSPDSTEEEPVTLPRRTTNDGFHLLKAGGSCFALISGTANQVKCYRFRVKKNHRHRYENCTTTWFTVADNGAERQGQAQILITFGSPSQRQDFLKHVPLPPGINISGFTASLDF
B12: BPV1 E2 mutant 340Y in the E2 repressor format (C-terminal 249 amino acids) (other)
chain: MAGAGRIYYSRFGDEAARFSTTGHYSVRDQDRVYAGVSSTSSDFRDRPDGVWVASEGPEGDPAGKEAEPAQPVSSLLGSPACGPIRAGLGWVRDGPRSHPYNFPAGSGGSILRSSSTPVQGTVPVDLASRQEEEEQSPDSTEEEPVTLPRRTTNDGFHLLKAGGSCFALISGTANQVKYYRFRVKKNHRHRYENCTTTWFTVADNGAERQGQAQILITFGSPSQRQDFLKHVPLPPGMNISGFTASLDF
B13: BPV1 E2 mutant 339M in the E2 repressor format (C-terminal 249 amino acids) (other)
chain: MAGAGRIYYSRFGDEAARFSTTGHYSVRDQDRVYAGVSSTSSDFRDRPDGVWVASEGPEGDPAGKEAEPAQPVSSLLGSPACGPIRAGLGWVRDGPRSHPYNFPAGSGGSILRSSSTPVQGTVPVDLASRQEEEEQSPDSTEEEPVTLPRRTTNDGFHLLKAGGSCFALISGTANQVMCYRFRVKKNHRHRYENCTTTWFTVADNGAERQGQAQILITFGSPSQRQDFLKHVPLPPGMNISGFTASLDF
B14: BPV1 E2 mutant 386W in the E2 repressor format (C-terminal 249 amino acids) (other)
chain: MAGAGRIYYSRFGDEAARFSTTGHYSVRDQDRVYAGVSSTSSDFRDRPDGVWVASEGPEGDPAGKEAEPAQPVSSLLGSPACGPIRAGLGWVRDGPRSHPYNFPAGSGGSILRSSSTPVQGTVPVDLASRQEEEEQSPDSTEEEPVTLPRRTTNDGFHLLKAGGSCFALISGTANQVKCYRFRVKKNHRHRYENCTTTWFTVADNGAERQGQAQILITFGSPSQWQDFLKHVPLPPGMNISGFTASLDF
B15: BPV1 E2 mutant 340R in the E2 repressor format (C-terminal 249 amino acids) (other)
chain: MAGAGRIYYSRFGDEAARFSTTGHYSVRDQDRVYAGVSSTSSDFRDRPDGVWVASEGPEGDPAGKEAEPAQPVSSLLGSPACGPIRAGLGWVRDGPRSHPYNFPAGSGGSILRSSSTPVQGTVPVDLASRQEEEEQSPDSTEEEPVTLPRRTTNDGFHLLKAGGSCFALISGTANQVKRYRFRVKKNHRHRYENCTTTWFTVADNGAERQGQAQILITFGSPSQRQDFLKHVPLPPGMNISGFTASLDF
B16: BPV1 E2 mutant 360S in the E2 repressor format (C-terminal 249 amino acids) (other)
chain: MAGAGRIYYSRFGDEAARFSTTGHYSVRDQDRVYAGVSSTSSDFRDRPDGVWVASEGPEGDPAGKEAEPAQPVSSLLGSPACGPIRAGLGWVRDGPRSHPYNFPAGSGGSILRSSSTPVQGTVPVDLASRQEEEEQSPDSTEEEPVTLPRRTTNDGFHLLKAGGSCFALISGTANQVKCYRFRVKKNHRHRYENCTTTSFTVADNGAERQGQAQILITFGSPSQRQDFLKHVPLPPGMNISGFTASLDF

One data set addresses full-length HPV16 E2 protein (human papillomavirus type 16 (HPV16), UniProt P03120). Briefly: cell-based or functional assay.
For the molecule B1, the “% REPRESSION (hGH reporter)” value stood at 87.2%. As to B2, the “% REPRESSION (hGH reporter)” value was 0%. For the molecule B3, the “% REPRESSION (hGH reporter)” value is 100%.

The next data set deals with the molecule itself. Briefly: homodimerization; UV cross-linking, SDS-PAGE, immunoblot. In general terms: Immunoblotting shows a protein as a band on a membrane.
For B4, the binding result is given as “no binding”.

Another data set has as its target full-length native BPV1 E2 trans-activator protein (bovine papillomavirus type 1 (BPV1)) (UniProt P03122).
Experiment: not given
The molecule “native BPV1 E2 repressor (C-terminal 249 amino acids of the BPV1 E2 protein) (from UniProt P03122)” returned a % repression of E2-dependent trans-activation (CAT or hGH reporter) of over 80%.

The target of a further data set is full-length native BPV1 E2 trans-activator protein (bovine papillomavirus type 1 (BPV1), UniProt P03122). Nature of the data set: cell-based or functional assay.
Turning to B5, the “Repression as % decrease in trans-activation by E2” value (shortened to “Repression as % decrease”) was found to be 0%.

As for B6, the “Repression as % decrease” value was determined as 90.4%.

Regarding B7, the “Repression as % decrease” value amounted to 89.6%. Take B8: the “Repression as % decrease” value was 82.6%.

On to B9, for which the “Repression as % decrease” value worked out at 91.7%. In the case of B10, the “Repression as % decrease” value turned out to be 86.1%. As to B11, the “Repression as % decrease” value turned out to be 86.9%. In the case of B12, the “Repression as % decrease” value was 93.5%. Consider B13, for which the “Repression as % decrease” value was 76.2%. With B14, the “Repression as % decrease” value is 81.4%.

Regarding B15, the “Repression as % decrease” value was 95.6%. As for B16, the “Repression as % decrease” value was determined as 32.3%.

A further data set has as its target full-length native BPV1 E2 trans-activator protein (bovine papillomavirus type 1 (BPV1)) (UniProt P03122).
Experiment: not given
The source holds these as a separate data set.
For the molecule “BPV1 E2 mutant 408* in the E2 repressor format (from UniProt P03122)”, the Repression as % decrease in trans-activation by E2 was determined as 59.5%.

“BPV1 E2 mutant 402* in the E2 repressor format (from UniProt P03122)” yielded a Repression as % decrease in trans-activation by E2 of 45.2%. In turn, “BPV1 E2 mutant 316Y in the E2 repressor format (C-terminal 249 amino acids) (from UniProt P03122)” displayed a Repression as % decrease in trans-activation by E2 of 8%.

On to “BPV1 E2 mutant 370I in the E2 repressor format (C-terminal 249 amino acids) (from UniProt P03122)”, for which the Repression as % decrease in trans-activation by E2 is 66.1%.

“BPV1 E2 mutant 366Y/376L in the E2 repressor format (C-terminal 249 amino acids) (from UniProt P03122)” yielded a Repression as % decrease in trans-activation by E2 of 16.1%. Same read-out and setting: for “BPV1 E2 mutant 374S/375L/391I (3SLI) in the E2 repressor format (C-terminal 249 amino acids) (from UniProt P03122)” the value was 39%; for “BPV1 E2 mutant 411* in the E2 repressor format (from UniProt P03122)”, 4.5%; for “BPV1 E2 mutant 317STOP in the E2 repressor format (from UniProt P03122)”, 7.1%.

The next data set has as its target full-length HPV16 E2 protein (human papillomavirus type 16 (HPV16)) (UniProt P03120).
Experiment: not given
As for “native BPV1 E2 repressor (C-terminal 249 amino acids of the BPV1 E2 protein) (from UniProt P03122)”, the % REPRESSION (hGH reporter) came to 100%.
